In publication PMC2199960 one finds percent of truncated collagen XII in the pellet (90 mM NaCl, 30 mM phosphate) and stoichiometry N data, which are given here for three substances.

The target in experiment [1] is collagen I from rat tail (rat) (UniProt P02454). Briefly: co-sedimentation.
The target in experiment [2] is NC3 domain of the small collagen XII subunit (190 kD) (chick). Briefly: two-dimensional SDS-PAGE.
Experiment [3] concerns the target collagen XII, small variant (small subunit, 220 kD) (chick). Briefly: electron microscopy.
Experiment [4] shares this target. Briefly: electron microscopy + nonreducing SDS-PAGE.

Sequence of collagen I from rat tail (rat) (P02454 152-1207, chain 1 of 2): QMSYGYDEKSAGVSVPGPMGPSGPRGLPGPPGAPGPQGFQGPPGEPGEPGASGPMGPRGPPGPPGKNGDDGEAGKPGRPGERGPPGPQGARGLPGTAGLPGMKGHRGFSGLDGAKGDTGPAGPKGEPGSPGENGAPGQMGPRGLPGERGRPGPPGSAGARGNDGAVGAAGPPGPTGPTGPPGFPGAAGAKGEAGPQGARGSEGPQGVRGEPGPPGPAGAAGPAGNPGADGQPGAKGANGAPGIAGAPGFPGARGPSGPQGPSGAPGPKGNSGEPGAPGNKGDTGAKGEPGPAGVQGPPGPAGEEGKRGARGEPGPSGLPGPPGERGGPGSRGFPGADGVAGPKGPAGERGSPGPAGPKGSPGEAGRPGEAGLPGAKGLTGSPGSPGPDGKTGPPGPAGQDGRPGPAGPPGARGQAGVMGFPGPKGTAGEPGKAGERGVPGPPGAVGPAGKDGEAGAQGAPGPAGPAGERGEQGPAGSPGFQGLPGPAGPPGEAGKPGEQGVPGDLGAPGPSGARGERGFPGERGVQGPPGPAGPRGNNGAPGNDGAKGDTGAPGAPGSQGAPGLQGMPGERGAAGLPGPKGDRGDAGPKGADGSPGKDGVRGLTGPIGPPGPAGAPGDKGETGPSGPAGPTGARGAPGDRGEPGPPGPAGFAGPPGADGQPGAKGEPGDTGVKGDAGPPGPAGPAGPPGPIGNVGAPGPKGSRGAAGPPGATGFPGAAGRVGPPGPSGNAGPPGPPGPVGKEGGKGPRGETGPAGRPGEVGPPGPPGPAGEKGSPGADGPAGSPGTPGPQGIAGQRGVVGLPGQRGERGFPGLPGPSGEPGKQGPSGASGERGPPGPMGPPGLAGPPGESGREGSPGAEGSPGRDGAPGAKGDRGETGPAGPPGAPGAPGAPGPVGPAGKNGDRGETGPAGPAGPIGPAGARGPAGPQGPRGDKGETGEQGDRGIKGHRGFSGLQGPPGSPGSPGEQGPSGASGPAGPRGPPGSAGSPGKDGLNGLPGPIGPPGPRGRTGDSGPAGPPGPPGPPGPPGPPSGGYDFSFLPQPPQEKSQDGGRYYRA
Sequence of collagen I from rat tail (rat) (P02466 86-1125, chain 2 of 2, further chain): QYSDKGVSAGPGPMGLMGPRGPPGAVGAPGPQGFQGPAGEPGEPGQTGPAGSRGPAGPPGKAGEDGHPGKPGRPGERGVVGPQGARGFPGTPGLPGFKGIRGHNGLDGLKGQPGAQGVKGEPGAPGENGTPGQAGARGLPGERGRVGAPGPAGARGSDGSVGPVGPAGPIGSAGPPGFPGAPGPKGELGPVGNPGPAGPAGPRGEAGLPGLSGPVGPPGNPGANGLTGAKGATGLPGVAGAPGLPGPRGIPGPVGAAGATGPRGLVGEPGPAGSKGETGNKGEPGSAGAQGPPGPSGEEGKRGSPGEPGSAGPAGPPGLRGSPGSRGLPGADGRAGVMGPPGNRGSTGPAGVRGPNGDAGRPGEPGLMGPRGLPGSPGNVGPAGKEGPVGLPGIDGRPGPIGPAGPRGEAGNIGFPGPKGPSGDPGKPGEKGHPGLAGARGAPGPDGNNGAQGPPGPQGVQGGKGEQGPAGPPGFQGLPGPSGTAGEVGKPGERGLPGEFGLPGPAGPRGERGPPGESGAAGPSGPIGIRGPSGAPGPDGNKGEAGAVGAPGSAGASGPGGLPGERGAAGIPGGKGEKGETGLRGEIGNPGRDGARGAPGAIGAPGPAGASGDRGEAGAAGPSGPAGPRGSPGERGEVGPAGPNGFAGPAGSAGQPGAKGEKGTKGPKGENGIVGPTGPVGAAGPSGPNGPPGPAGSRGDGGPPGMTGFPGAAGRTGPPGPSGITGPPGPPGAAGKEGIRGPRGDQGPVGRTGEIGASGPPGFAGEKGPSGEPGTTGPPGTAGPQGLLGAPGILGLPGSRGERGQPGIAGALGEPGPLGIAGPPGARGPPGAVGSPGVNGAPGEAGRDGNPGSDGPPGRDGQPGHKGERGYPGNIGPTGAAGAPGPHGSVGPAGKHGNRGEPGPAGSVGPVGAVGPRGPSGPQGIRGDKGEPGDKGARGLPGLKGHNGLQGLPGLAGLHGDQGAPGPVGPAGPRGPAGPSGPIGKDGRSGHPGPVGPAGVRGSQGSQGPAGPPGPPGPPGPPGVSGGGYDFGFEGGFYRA

For “NC3 domain of the large collagen XII subunit (290 kD), collagenase-treated collagen XII (domain or fragment)”, the percent of truncated collagen XII in the pellet (90 mM NaCl, 30 mM phosphate) in experiment [1] came out at 20%. Usually stoichiometry N stands for a count of units in the complex or per binding partner. In experiment [2], “NC3 domain of the small collagen XII subunit (190 kD) (domain or fragment)” gave a stoichiometry N of 3. Take “collagen XII, small variant (small subunit, 220 kD) (natural protein)”: the stoichiometry N in experiment [3] and in experiment [4] was 3 each time.
